Nine molecules from patent US20190185565A1 (DEUTSCHES ZENTRUM FUR NEURODEGENERATIVE ERKRANKUNG EV, published 2019) can be followed below.

The target in assay [1] is T1, human wild-type TREM2 (membrane bound, isoform 1) stably overexpressed on HEK293 Flp-In cells (human).
T1 construct: also called wt TREM2; human full-length TREM2
T1 chain: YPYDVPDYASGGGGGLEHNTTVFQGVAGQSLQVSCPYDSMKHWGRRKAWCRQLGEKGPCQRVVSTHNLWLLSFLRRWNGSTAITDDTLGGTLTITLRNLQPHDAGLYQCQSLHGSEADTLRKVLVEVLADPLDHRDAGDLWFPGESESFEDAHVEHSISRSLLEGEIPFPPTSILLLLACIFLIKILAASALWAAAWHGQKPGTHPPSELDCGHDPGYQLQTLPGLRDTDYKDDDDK
Briefly: immunofluorescence on live HEK293 Flp-In cells expressing human full-length TREM2 against empty-vector cells; hybridoma supernatant diluted 1:2. The protocol:
TREM2-reactive supernatants were subsequently screened for their ability to detect TREM2 on the cell surface of HEK293 Flp-In cells stably overexpressing human wild-type TREM2 (Kleinberger et al. 2014). HEK293 Flp-In cells either expressing human full-length TREM2 or empty vector (=control) were cultured in 96-well tissue culture plates, washed twice with PBS, blocked with 2% bovine serum albumin (BSA) in PBS and incubated with the respective TREM2-reactive supernatants (diluted 1:2 in blocking buffer) for 60 minutes on ice. Cells were subsequently washed three times with PBS, fixed with 4% paraformaldehyde for 20 min on room temperature and washed three times with PBS. Binding of TREM2-reactive supernatants was visualized using isotype-specific mouse-anti rat secondary antibodies followed by incubation with a goat anti-mouse tertiary antibody coupled to Alexa-488 (Life Technologies). 4′, 6-diamidino-2-phenylindol (Dapi, Life Technologies) was used as a nuclear counterstain. Images were acquired automatically using a Cytation multi-detection reader (Biotek).

For assay [2], the target named is T1, human wild-type TREM2 (membrane bound, …). Briefly: cell-based or functional assay.

B1: antibody clone 8A11 (antibody, V domains shown)
VH: EVKLLESGGGLVQPGGSMRLSCAASGFTFTDFYMNWIRQPAGKAPEWLGLIRNKTKGYTTEYNTSVKGRFTISRDNTQNMLYLQMNSLRPEDTATYYCARIGVNNGGSLDYWGQGVMVTVSS
VL: DILIIQSPASLTVSAGARVTMSCKSSQSLLYSENNQDYLAWYQQKPGQFPKLLIYGASNRHTGVPDRFTGSGSGTDFTLTISSVQAEDLADYYCEQTYSYPYTFGAGTKLELK
notes: Rat monoclonal IgG from a hybridoma
With B1, the binding result in assay [1] is recorded as “binds”.

B2: antibody clone 21A3 (antibody, V domains shown)
VH: EVKLLESGGGLVQPGGSMRLSCAASGFTFTDFYMNWIRQPAGKAPEWLGLIRNKANGYTTQYNPSVKGRFTISRDNTQNMLYLQMNTLRGEDTATYYCARIGINNGGSLDYWGQGVMVTVSS
VL: DILINQSPASLTVSAGEKVTMSCKSSQSLLYSEKNQDYLAWYQQKPGQSPKLLMYGASYRHTGVPDRFTGSGSGTDFTLTISSVQAEDLADYYCEQTYSYPYTFGAGTKLELK
notes: as for B1
For the molecule B2, the binding result in assay [1] was “binds”.

B3: antibody clone 7A12 (antibody, V domains shown)
VH: EVKLLESGGGLVQPGGSMRLSCAASGFTFTDFYMNWIRQPAGKAPEWLGLIRNKANGYTTQYNPSVKGRFTISRDNTQNMLYLQMNTLRGEDTATYYCARIGINNGGSLDYWGQGVMVTVSS
VL: DILINQSPASLTVSAGEKVTMSCKSSQSLLYSEKNQDYLAWYQQKPGQSPKLLMYGASYRHTGVPDRFTGSGSGTDFTLTISSVQAEDLADYYCEQTYSYPYTFGAGTKLELK
notes: as for B1
On to B3, for which the binding result in assay [1] was “binds”.

B4: antibody clone 1G6 (antibody, V domains shown)
VH: EVKLLESGGGLVQPGGSLRLSCVASGFTFTDFYMNWIRQPAGKAPEWLGLIRNKANGFTTEYNPSVKGRFTISRDNTQHMLYLQMNTLRAEDTATYYCARIGINNGGSLDYWGQGVMVTVSS
VL: DILINQSPASLTVSTGEKVTMSCKSSQSLLYSENKQDYLAWYQQKPGQFPKLLIYGASNRHTGVPDRFTGSGSGTDFTLTINIVQAEDLADYYCEQTYSYPYTFGAGTKLELK
notes: as for B1
B4: the binding result in assay [1] was “binds”.

B5: antibody clone 10C3 (antibody, V domains shown)
VH: EVKLLESGGGLVQPGGSMRLSCAASGFTFTDFYMNWIRQPAGETPEWLGLIRNKTKGYTTEYNPSVKGRFTISRDNTQNMLYLQMNSLRPEDTATYYCARIGTNNGGSLDYWGQGVMVTVSS
VL: DILIIQSPASLTVSAGARVTMSCKSSQSLLYSENNQDYLAWYQQKPGQFPKLLIYGASNRHTGVPDRFTGSGSGTDFTLTISSVQAEDLADYYCEQTYSYPYTFGAGTKLELK
notes: as for B1
For the molecule B5, the binding result in assay [1] is “binds”.

B6: antibody clone 14D3 (antibody, V domains shown)
VH: EVKLLEFGGGLVQPGGSMRLSCAASGFTFTDFYMNWIRQPAGRAPEWLGLIRNKTKGYTTEYNRSVKGRFTISRDNTQNMLYLQMNSLRPEDTATYYCARIGVNNGGSLDYWGQGVMVTVSS
VL: DILIIQSPASLTVSAGARVTMSCKSSQSLLYSENNQDYLAWYQQKPGQFPKLLIYGASNRHTGVPDRFTGSGSGTDFTLTISSVQAEDLADYYCEQTYSYPYTFGAGTKLELK
In the case of B6, the “increase of mature TREM2 in the membrane fraction (quantified immunoblot, normalized to immature TREM2)” value in assay [2] was not above 5 fold.

B7: antibody clone 14D8 (antibody, V domains shown)
VH: EVKLLESGGGLVQPGGSMRLSCAASGFTFTDFYMNWIRQPAGKAPEWLGLIRNKANGYTTVYNPSVKGRFTISRDNTQNMLYLQMNTLRGEDTATYYCARIGINNGGSLDYWGQGVMVTVSS
VL: DILINQSPASLTVSTGEKVTMSCRSSQSLLYSEKNQDYLAWYQQKPGQFPKLLIYGASYRHTGVPDRFTGSGSGTDFTLTISSVQAEDLADYYCEQTYSYPYTFGAGTKLELK
notes: as for B1
In the case of B7, in assay [1], the binding result was “binds”.

B8: antibody clone 18F9 (antibody, V domains shown)
VH: EVKLLESGGGLVQPGGSMRLSCVVSGFTFTDFYMNWIRQAAGKAPEWLGLIRNKVNGYRTEYNPSVKGRFTISRDNIQNMLYLQMNTLRAEDTATYYCARIGINNGGSLDYWGQGVMVTVSS
VL: DILINQSPASLTVSAGEKVTMSCKSSQSLLYSENNQDYLAWYQQKPGQFPKLLIYGASNRHTGVPDRFTGSGSGTDFTLTISSVQAEDLADYYCEQTYSYPYTFGAGTKLELK
notes: as for B1
For the molecule B8, the binding result in assay [1] was “binds”.

B9: antibody clone 15C5 (antibody, V domains shown)
VH: EVKLLESGGGLVQPGGSMRLSCAASGFTFTDFYMNWIRQPAGKAPEWLGLIRNKAYGYTTEYNPSVKGRFTISRDNTQDMLYLQMNTLRAEDTATYYCARIGINYGGSLDYWGQGVMVTVSS
VL: DILINQSPASLTVSAGEKVTVSCKSSQSLLYSESNQDYLAWYQQKPGQFPKLLIYGASYRHTGVPDRFTGSGSGTDFTLTISSVQAEDLAHYYCEQTYSYPYTFGAGTKLELK
notes: as for B1
As for B9, in assay [1], the binding result is reported as “binds”.
